Article PMC5399442, “Fatty acid synthase cooperates with protrudin to facilitate membrane outgrowth of cellular protrusions” (Scientific Reports, 2017)
Where a chain is given by its changes, count along the chain named.

B1: wild-type protrudin with a C-terminal myc tag (natural protein, human, UniProt Q5T4F4-2 1-404, looked up)
chain: MQTSEREGSGPELSPSVMPEAPLESPPFPTKSPAFDLFNLVLSYKRLEIYLEPLKDAGDGVRYLLRWQMPLCSLLTCLGLNVLFLTLNEGAWYSVGALMISVPALLGYLQEVCRARLPDSELMRRKYHSVRQEDLQRGRLSRPEAVAEVKSFLIQLEAFLSRLCCTCEAAYRVLHWENPVVSSQFYGALLGTVCMLYLLPLCWVLTLLNSTLFLGNVEFFRVVSEYRASLQQRMNPKQEEHAFESPPPPDVGGKDGLMDSTPALTPTEDLTPGSVEEAEEAEPDEEFKDAIEEDDEGAPCPAEDELALQDNGFLSKNEVLRSKVSRLTERLRKRYPTNNFGNCTGCSATFSVLKKRRSCSNCGNSFCSRCCSFKVPKSSMGATAPEAQRETVFVCASCNQTLSK
notes: protrudin (ZFYVE27), human, from cDNA; also called WT-protrudin; protrudin-myc; source: HEK293T, transfected (pcDNA3.1-protrudin-myc), in lysate; not shown: c-Myc, C-terminal, kept
B2: protrudin with DiZPK incorporated at site D134, C-terminal myc tag (natural protein, human, UniProt Q5T4F4-2 1-404, looked up)
chain: B1 chain with D134K
modifications: DiZPK (3-(3-methyl-3H-diazirin-3-yl)-propamino-carbonyl-Nε-L-lysine) at position 134
notes: protrudin (ZFYVE27), human; codon of D134 changed to the amber codon (TAG) and read as DiZPK, a lysine derivative; The new residue is written as K because DiZPK is an Nε-modified lysine; source: HEK293T, transfected with the MbPylRS/MbtRNACUA pair, cultured with DiZPK, in lysate; not shown: c-Myc, C-terminal, kept

Experiments:
[1] = biological target: the molecule itself; assay: SDS-resistant dimer on SDS-PAGE with immunoblot; HEK293T cells expressing WT-protrudin exposed to UV light (365 nm) as control; SDS-PAGE and immunoblot with anti-Myc antibody
[2] = biological target: the molecule itself; assay: cross-linking; photo-crosslinking by DiZPK in living HEK293T cells, 48 h after transfection, UV 365 nm for 10 min; SDS-PAGE and immunoblot with anti-Myc antibody

| Protein | stoichiometry N [1] | stoichiometry N [2] |
| --- | --- | --- |
| B1 | 2 | – |
| B2 | – | 2 |
